Measurements as given in article doi:10.1101/2025.04.23.650334.

Biological target: T1, GdFen1 (Giardia duodenalis, UniProt A8B672 1-361)
T1 sequence: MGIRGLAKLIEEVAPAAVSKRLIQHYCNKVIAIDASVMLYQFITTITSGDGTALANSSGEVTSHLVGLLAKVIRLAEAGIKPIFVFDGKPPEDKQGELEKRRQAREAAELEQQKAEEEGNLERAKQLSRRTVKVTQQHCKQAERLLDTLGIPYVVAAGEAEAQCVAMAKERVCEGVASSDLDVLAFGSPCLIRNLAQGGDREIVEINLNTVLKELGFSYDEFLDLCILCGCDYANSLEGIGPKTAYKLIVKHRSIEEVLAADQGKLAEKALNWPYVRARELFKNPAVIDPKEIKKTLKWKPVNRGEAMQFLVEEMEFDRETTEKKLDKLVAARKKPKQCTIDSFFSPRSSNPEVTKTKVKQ
Assay: EMSA

B1: Flap probe (structured_DNA)
DNA 1: CGCGGATCCCACTACGCCGATTTTTTTTTTTTTTTTTTTTACGTATGCCACGAATTCGCG
DNA 2: CGCGAATTCGTGGCATACGTAAAAAAAAAAAAAAAAAAAAGAGATGCGAGTCTAGACCGG
DNA 3: CCGGTCTAGACTCGCATCTC
- binding result: binds

B2: Bubble probe (structured_DNA)
DNA 1: CGCGGATCCCACTACGCCGATTTTTTTTTTTTTTTTTTTTACGTATGCCACGAATTCGCG
DNA 2: CGCGAATTCGTGGCATACGTTTTTTTTTTTTTTTTTTTTTTCGGCGTAGTGGGATCCGCG
- binding result: binds
